Measured values as given in the supplement of paper PMC9170038.

Test system: MS2 coat protein
Experiment: apparent KD of MS2 coat protein; designed switch direction (-1 OFF switch, 1 ON switch): -1; higher = weaker reporter binding
Method in brief: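 Designed RNA switches with common flanks were transcribed on Illumina chips by stalled E. coli RNA polymerase and titrated with SNAP-549-labelled MS2 coat protein, from 0.7 or 1.5 nM doubling to 3 µM, in Tris-HCl pH 7.5 buffer with KCl, MgCl2, BSA, DTT, tRNA and Tween-20. Steps lasted 0.8–1.5 h (lowest) to 10–20 min (highest). Titrations ran without input, with 200 uM small-molecule ligand, or with an oligonucleotide input. Normalised cluster fluorescence was curve-fitted, and apparent KD is the per-design median over clusters.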

[1] = Eterna round: R95, input ligand: microRNA oligo, concentration not stated
[2] = input ligand: microRNA oligo, concentration not stated

Sequence: UCGGUGACAGGAUAUACAUGAGGAUCACCCAUGUUAAGAAGAGAAAGGGCAGGAAGAGGUAGAAGGGUCGCUGU [JL JR_Exclu3_Sub033 mod] (puzzle: Exclusion 3)
- apparent KD of MS2 coat protein [1]: 37.8 nM

Sequence: UCGUGAUUAGAGGAUAUAUUUUGAGUCAGAACAAUAGAAGGCUAAACAUGAGGAUCACCCAUGUAUGUGUAAAA [JR_Ex6_Sub063] (Eterna round: R97, puzzle: Exclusion 6)
- apparent KD of MS2 coat protein (input ligand: FMN 200 uM): 184 nM
- apparent KD of MS2 coat protein (input ligand: none): 26.9 nM

Sequence: UCUAGACAUGAGGAUCACCCAUGUGAGGAUAUGAUGCGAUCGUCGAAAGACGAUAGCAUCAGAAGGCACGUAUG [Fiskers Ex 1 - 14] (puzzle: Exclusion 1)
- apparent KD of MS2 coat protein [1]: 54.4 nM

Sequence: UCUAGGAGAGGAUAUACAUGAGGAUCACCCAUGUGCAUGAUCAGGCGUCAGUCGCACCGUAGAAGGUUCCAGAA [Eternabot (L2) Solution 40] (Eterna round: R97, puzzle: Exclusion 3)
- apparent KD of MS2 coat protein (input ligand: FMN 200 uM): 89.9 nM
- apparent KD of MS2 coat protein (input ligand: none): 47 nM

Sequence: UCUAGUUGGUAAGGAUAUCCUACAUUGUUCUGGCCCGGGCAUGCUACAUGAGGAUCACCCAUGUGGGAGAAGGUGCGUCAUUGC [Design 21] (Eterna round: R96, puzzle: Exclusion NG 2)
- apparent KD of MS2 coat protein (input ligand: FMN 200 uM): 44.6 nM
- apparent KD of MS2 coat protein [2]: 32.2 nM
- apparent KD of MS2 coat protein (input ligand: none): 61.9 nM

Sequence: UCUAUGAUGCGAGGAUAUCGACCAUUCCUCUUUACAUGAGGAUCACCCAUGUUCGUACGCUACAACGAGAAGGCGCACUAAGUU [JR_ExcNG2_Sub060] (Eterna round: R96, puzzle: Exclusion NG 2)
- apparent KD of MS2 coat protein (input ligand: FMN 200 uM): 292 nM
- apparent KD of MS2 coat protein [2]: 131 nM
- apparent KD of MS2 coat protein (input ligand: none): 157 nM

Sequence: UCUCGAUGGCAAGGAUAUCCUACAUUGUUCUGGCCCGGGCAUGCUACAUGAGGAUCACCCAUGUGGGAGAAGGUGCGCCACUGC [Design 26] (Eterna round: R96, puzzle: Exclusion NG 2)
- apparent KD of MS2 coat protein (input ligand: FMN 200 uM): 118 nM
- apparent KD of MS2 coat protein [2]: 55 nM
- apparent KD of MS2 coat protein (input ligand: none): 93.3 nM

Sequence: UCUCGCGGGCAAGGAUAUCCUACGCUGUUCUGGCCCGUGUAUGUUACAUGAGGAUCACCCAUGUGGGAGAAGGUGCACCAGGGC [Design 40] (Eterna round: R96, puzzle: Exclusion NG 2)
- apparent KD of MS2 coat protein (input ligand: FMN 200 uM): 83.3 nM
- apparent KD of MS2 coat protein [2]: 39.3 nM
- apparent KD of MS2 coat protein (input ligand: none): 76 nM

Sequence: UCUGGUCGAGGAUAUACAUUCGUGCUUCGGCACGUAAGAUCACAUGAGGAUCACCCAUGUAGAAGGCGACCAGA [E2/5-A3] (Eterna round: R97, puzzle: Exclusion 2)
- apparent KD of MS2 coat protein (input ligand: FMN 200 uM): 1050 nM
- apparent KD of MS2 coat protein (input ligand: none): 98.8 nM

Sequence: UCUGGUCGAGGAUAUGCAAUCGUGCUUCGGCACGUAAGGUCACAUGAGGAUCACCCAUGUAGAAGGCGACCAGA [E2/4-A3] (Eterna round: R97, puzzle: Exclusion 2)
- apparent KD of MS2 coat protein (input ligand: FMN 200 uM): 34.4 nM
- apparent KD of MS2 coat protein (input ligand: none): 17.3 nM

Sequence: UCUGGUCGGAAGGAUAUGGUCGGGUCAAAUCGUCCAGAAGGUCUGACAUGAGGAUCACCCAUGUGAGUCCAAAG [Ataesma] (puzzle: Exclusion 6)
- apparent KD of MS2 coat protein (Eterna round: R95, input ligand: FMN 200 uM): 77.5 nM
- apparent KD of MS2 coat protein [1]: 20.4 nM
- apparent KD of MS2 coat protein (Eterna round: R95, input ligand: none): 21.8 nM

Sequence: UCUGUUCAAGGAUAUGCGUAAGGUGUUACGGCACCAGGUCUACAUGAGGAUCACCCAUGUAGAAGGUGAUCAGA [EX2 #88] (Eterna round: R97, puzzle: Exclusion 2)
- apparent KD of MS2 coat protein (input ligand: FMN 200 uM): 22.4 nM
- apparent KD of MS2 coat protein (input ligand: none): 20.3 nM

Sequence: UCUUUGUCAGGAUAUCGUGCAUACAACGAAAGUUCUAUGUGCGAGAAGGGACAUGAGGAUCACCCAUGUUACGG [Omei Ex4 A4] (Eterna round: R97, puzzle: Exclusion 4)
- apparent KD of MS2 coat protein (input ligand: FMN 200 uM): 244 nM
- apparent KD of MS2 coat protein (input ligand: none): 358 nM

Sequence: UGAAAAGACCUAGGAUAUACCCAGUGGGUAGAGGGUCAGAAUAAUAAAACAUGAGGAUCACCCAUGUAGAAGGAGGGAAAGAAG [Laerxe] (Eterna round: R96, puzzle: Exclusion NG 2)
- apparent KD of MS2 coat protein (input ligand: FMN 200 uM): 48.3 nM
- apparent KD of MS2 coat protein [2]: 42 nM
- apparent KD of MS2 coat protein (input ligand: none): 59.4 nM

Sequence: UGAACAUGAGGAUCACCCAUGUGGUUAGGUGAAAUCCUGCUGGAGGAUAUAAGUCCUGGUGCCGCUUAGAAGGCCAGCUGACAG [Eternabot solution 48] (Eterna round: R96, puzzle: Exclusion NG 3)
- apparent KD of MS2 coat protein (input ligand: FMN 200 uM): 72 nM
- apparent KD of MS2 coat protein [2]: 56.7 nM
- apparent KD of MS2 coat protein (input ligand: none): 82.5 nM

Sequence: UGACACACCUGAGGAUAUUCUGAACGUUUCCCAGAAGAAGGUAGGUACAGCGGGAGCGCCACAUGAGGAUCACCCAUGUCUACC [Eternabot solution 46] (Eterna round: R96, puzzle: Exclusion NG 1)
- apparent KD of MS2 coat protein (input ligand: FMN 200 uM): 126 nM
- apparent KD of MS2 coat protein [2]: 103 nM
- apparent KD of MS2 coat protein (input ligand: none): 142 nM

Sequence: UGAGCAAGAGGAUAUACAUGACGUGCCGUAGCACGAGGUCUACAUGAGGAUCACCCAUGUAGAAGGCUUGUUCU [Mat - Exclusion 2 - JL Mod - D5] (Eterna round: R97, puzzle: Exclusion 2)
- apparent KD of MS2 coat protein (input ligand: FMN 200 uM): 170 nM
- apparent KD of MS2 coat protein (input ligand: none): 34.2 nM

Sequence: UGAGCUACAGGAUAUAUAUGGCGACCGUGAGGUCGAAGGUUACAUGAGGAUCACCCAUGUAGAAGGGUAGUUCU [Mat - Exclusion 2 - JL Mod - D17] (Eterna round: R97, puzzle: Exclusion 2)
- apparent KD of MS2 coat protein (input ligand: FMN 200 uM): 225 nM
- apparent KD of MS2 coat protein (input ligand: none): 86.2 nM

Sequence: UGAGCUUGAGGAUAUACAAGCUUGAGCUGAAAAGUUCGAGUACAUGAGGAUCACCCAUGUAGAAGGCGAGUUCG [-26.7, -25.2 kcal, A 31% 1bis and 1] (Eterna round: R97, puzzle: Exclusion 2)
- apparent KD of MS2 coat protein (input ligand: FMN 200 uM): 39.7 nM
- apparent KD of MS2 coat protein (input ligand: none): 26 nM

Sequence: UGAGGACAUGAGGAUCACCCAUGUAAGGAUAUGCGGAGAGUUUGGAGAGGUUGAGGAGGCAGAAGGUACGGGAU [JR_Exclu1_Sub046] (Eterna round: R96, puzzle: Exclusion 1)
- apparent KD of MS2 coat protein (input ligand: FMN 200 uM): 144 nM
- apparent KD of MS2 coat protein [2]: 47.4 nM
- apparent KD of MS2 coat protein (input ligand: none): 103 nM

Sequence: UGAGGACAUGAGGAUCACCCAUGUAAGGAUAUGCGGAGAGUUUGGAGAGGUUGAGGAGGCAGAAGGUACGGGAU [JR_Exclu1_Sub046] (puzzle: Exclusion 1)
- apparent KD of MS2 coat protein [1]: 102 nM

Sequence: UGAGUGCUGCGAGGAUAUACAUGAGGAUCACCCAUGUAAAAGUGUGAGGCUUUGCCUCACACUAUGUAGAAGGCGCAGUACUCU [JL ENG2 1.04] (Eterna round: R96, puzzle: Exclusion NG 2)
- apparent KD of MS2 coat protein (input ligand: FMN 200 uM): 17.6 nM
- apparent KD of MS2 coat protein [2]: 10.6 nM
- apparent KD of MS2 coat protein (input ligand: none): 13.6 nM

Sequence: UGAGUGCUGCGAGGAUAUACAUGAGGAUCACCCAUGUAAACGUGUGAGGCUUUGCCUCACACGAUGUAGAAGGCGCAGUACUCU [JL ENG2 1.05] (Eterna round: R96, puzzle: Exclusion NG 2)
- apparent KD of MS2 coat protein (input ligand: FMN 200 uM): 18.4 nM
- apparent KD of MS2 coat protein [2]: 9.25 nM
- apparent KD of MS2 coat protein (input ligand: none): 14 nM

Sequence: UGAUCAAAUGUCAGGAUAUGCUGUUGUAAUCAACAGCAGAAGGGACAUGAGGAUCACCCAUGUCUUGUCGAUUU [Magic-03] (puzzle: Brourd's mod of Exclusion 4)
- apparent KD of MS2 coat protein [1]: 13.8 nM

Sequence: UGAUCAGACCGAGGAUAUACAGGGAGCACGCACGUGAGUGCGUGCACUACAUGAGGAUCACCCAUGUAGAAGGCGGUCUGAUCU [JL ENG2 1.00] (Eterna round: R96, puzzle: Exclusion NG 2)
- apparent KD of MS2 coat protein (input ligand: FMN 200 uM): 268 nM
- apparent KD of MS2 coat protein [2]: 16.1 nM
- apparent KD of MS2 coat protein (input ligand: none): 19.3 nM

Sequence: UGAUCAGACCGAGGAUAUACAUGUAGGACCCACGUGAGUGGGUCCAUUACAUGAGGAUCACCCAUGUAGAAGGCGGUCUGAUCU [JL ENG2 1.90] (Eterna round: R96, puzzle: Exclusion NG 2)
- apparent KD of MS2 coat protein (input ligand: FMN 200 uM): 313 nM
- apparent KD of MS2 coat protein [2]: 97.7 nM
- apparent KD of MS2 coat protein (input ligand: none): 139 nM

Sequence: UGAUCAGACCGAGGAUAUAUAUGGAGGACCCACGUGAGUGGGUCCACUACAUGAGGAUCACCCAUGUAGAAGGCGGUCUGAUCU [JL ENG2 1.86] (Eterna round: R96, puzzle: Exclusion NG 2)
- apparent KD of MS2 coat protein (input ligand: FMN 200 uM): 29.5 nM
- apparent KD of MS2 coat protein [2]: 9.64 nM
- apparent KD of MS2 coat protein (input ligand: none): 13.3 nM

Sequence: UGAUCUAGCGGAGGAUAUACAUGAGGAUCACCCAUGUAGAUAACAUGACCGUAGUCGUGUAUCGUGUAGAAGGCCGCUAGAUCU [JL ENG2 3.67] (Eterna round: R96, puzzle: Exclusion NG 2)
- apparent KD of MS2 coat protein (input ligand: FMN 200 uM): 35 nM
- apparent KD of MS2 coat protein [2]: 9.25 nM
- apparent KD of MS2 coat protein (input ligand: none): 12.6 nM

Sequence: UGAUCUAGCGGAGGAUAUACAUGAGGAUCACCCAUGUAGAUGAGUGUACCGUAGUGCACUCUUGUGUAGAAGGCCGCUAGAUCU [JL ENG2 3.56] (Eterna round: R96, puzzle: Exclusion NG 2)
- apparent KD of MS2 coat protein (input ligand: FMN 200 uM): 24.8 nM
- apparent KD of MS2 coat protein [2]: 12.6 nM
- apparent KD of MS2 coat protein (input ligand: none): 16.7 nM

Sequence: UGAUCUAGCGGAGGAUAUACAUGAGGAUCACCCAUGUAGUGGUGACGUGCGUACAUGUCACCUGUGUAGAAGGCCGCUAGAUCU [JL ENG2 3.58] (Eterna round: R96, puzzle: Exclusion NG 2)
- apparent KD of MS2 coat protein (input ligand: FMN 200 uM): 20.1 nM
- apparent KD of MS2 coat protein [2]: 9.65 nM
- apparent KD of MS2 coat protein (input ligand: none): 14.8 nM
